This note sets out measurements from article PMC2885523.

The target of this assay is MP81, in vitro-synthesized, [35S]-labeled (T. brucei). Kind of assay: co-IP.

In the case of “TbTUT4-MD (TbTUT4 TUTase with grafted RET2 middle domain), in vitro-synthesized, [35S]-labeled (from UniProt Q381M1;Q86MV5)”, the fold increase of immunoprecipitation on addition of MP81 was 2 fold.
